The target of one data set is WT p53 DBD (UniProt P04637 94-293). In words: pull-down (streptavidin beads, Western blot); DBD pull-down: streptavidin beads with biotinylated oligo, 3 h at 4 C; Figure 1A: 50 ng protein; buffer, salt and pH not in the material; ELISA per R&D kit. The note with it: protein: recombinant; label: 5' biotin; annealed to complementary oligo.
The target of data set [1] is WT p53 full length (His-tagged) (UniProt P04637 1-393). Described as above. The note with it: protein: recombinant; tags: His; label: 5' biotin; annealed to complementary oligo.

The source of these data is publication PMC4914250.

WT p53 full length (His-tagged), sequence (P04637 whole entry): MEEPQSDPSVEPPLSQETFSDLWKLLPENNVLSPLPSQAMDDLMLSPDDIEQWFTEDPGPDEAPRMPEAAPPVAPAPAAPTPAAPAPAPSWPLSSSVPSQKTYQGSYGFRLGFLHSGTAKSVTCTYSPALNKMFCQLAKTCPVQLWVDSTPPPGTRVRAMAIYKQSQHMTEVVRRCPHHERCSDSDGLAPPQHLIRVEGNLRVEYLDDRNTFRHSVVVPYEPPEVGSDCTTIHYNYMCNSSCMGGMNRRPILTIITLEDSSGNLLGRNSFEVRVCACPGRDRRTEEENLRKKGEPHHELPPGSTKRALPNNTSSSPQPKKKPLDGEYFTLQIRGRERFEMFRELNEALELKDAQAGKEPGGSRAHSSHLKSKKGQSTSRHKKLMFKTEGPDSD
WT p53 DBD, sequence (P04637 94-293): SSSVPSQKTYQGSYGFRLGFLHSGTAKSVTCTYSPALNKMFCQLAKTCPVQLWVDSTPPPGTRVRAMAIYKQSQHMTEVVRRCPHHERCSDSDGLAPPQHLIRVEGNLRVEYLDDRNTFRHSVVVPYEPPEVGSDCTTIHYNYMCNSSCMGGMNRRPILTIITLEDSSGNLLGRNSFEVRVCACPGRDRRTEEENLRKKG

B1: p53RE oligo (dsDNA)
DNA 1: CTGCTGAAGCTTCGAATTCCTAGACATGCCCAGACATGTCCTACTGCTGCTGCTGCTGCTGCTGCGAACATGTCCCAACATGTTGCTGCTGCTGCTGCTG
DNA 2: CAGCAGCAGCAGCAGCAACATGTTGGGACATGTTCGCAGCAGCAGCAGCAGCAGCAGTAGGACATGTCTGGGCATGTCTAGGAATTCGAAGCTTCAGCAG
Consider B1, for which the binding result (with WT p53 DBD; in data set [1]) was “binds” throughout.
